Measurements published in patent publication US20040197306A1 (SCHERING, published 2004).

Columns and labels:
Assay in all cases: FACS, FLAG-tagged ligand supernatant on Baf/3 cells with chimeric receptor, anti-FLAG M2 detection
[1] = molecular target: T1, mouse IL-17RD (DCRS8) extracellular domain fused to transmembrane and intracellular domains of murine GCSFR, … (mouse, UniProt Q8JZL1 17-299; P40223 627-837, limits assumed)
T1 construct: extracellular domain;domain: transmembrane and intracellular domains; Chimeric receptor stably expressed on Baf/3 cells; also called MuIL-17RX-MuGCSFR (X = D)
T1 sequence (looked up): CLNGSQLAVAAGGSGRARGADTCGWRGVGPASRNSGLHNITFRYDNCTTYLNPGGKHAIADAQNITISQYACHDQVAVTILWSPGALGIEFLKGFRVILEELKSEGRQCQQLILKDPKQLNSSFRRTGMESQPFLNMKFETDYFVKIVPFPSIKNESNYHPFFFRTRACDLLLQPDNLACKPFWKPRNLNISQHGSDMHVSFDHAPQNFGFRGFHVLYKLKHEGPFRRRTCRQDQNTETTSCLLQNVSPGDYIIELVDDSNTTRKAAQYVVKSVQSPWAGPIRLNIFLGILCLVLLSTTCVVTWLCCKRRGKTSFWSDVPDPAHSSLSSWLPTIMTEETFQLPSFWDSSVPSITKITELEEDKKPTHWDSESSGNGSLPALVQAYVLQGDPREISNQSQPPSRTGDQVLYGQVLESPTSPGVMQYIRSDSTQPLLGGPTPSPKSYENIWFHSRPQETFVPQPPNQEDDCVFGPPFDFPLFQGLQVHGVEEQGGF
Procedure: (§1) FACS analysis was used to determine specific binding of the various ligands to the various receptors. Baf/3 or Baf/3 mouse IL17RX-mouse GCSFR cells were incubated with ligand containing cell supernatants for one hour on ice. The cells were then washed once in FACS buffer and resuspended in 10 μg/ml ANTI-FLAG® M2 antibody (Sigma, St. Louis, Mo.) for one hour on ice. Cells were washed once in FACS buffer and resuspended in 10 μl/ml anti-mouse IgG-PE (Jackson ImmunoResearch, West Grove, Pa.) for 30 minutes on ice. Cells were washed once in FACS buffer and resuspended in FACS buffer and 1 μl/ml propidium iodide (Roche Applied Science, Indianapolis, Ind.) and analyzed on a FACS Calibur (Becton Dickinson, San Jose, Calif.). The chimeric receptor cell based assay was used to visualize the binding of each of the IL-17 family ligands to the receptors by FACS.

[2] = molecular target: T2, mouse IL-17RA extracellular domain fused to transmembrane and intracellular domains of murine GCSFR, on Baf/3 … (mouse, UniProt Q60943 32-322; P40223 627-837, limits assumed)
T2 construct: extracellular domain;domain: transmembrane and intracellular domains; Chimeric receptor stably expressed on Baf/3 cells; also called MuIL-17RX-MuGCSFR (X = A)
Procedure: as §1

[3] = molecular target: T3, mouse IL-17RC (DCRS7) extracellular domain fused to transmembrane and intracellular domains of murine GCSFR, … (mouse, UniProt P40223 627-837, limits assumed)
T3 construct: domain: transmembrane and intracellular domains; Chimeric receptor stably expressed on Baf/3 cells; also called MuIL-17RX-MuGCSFR (X = C)
T3 sequence: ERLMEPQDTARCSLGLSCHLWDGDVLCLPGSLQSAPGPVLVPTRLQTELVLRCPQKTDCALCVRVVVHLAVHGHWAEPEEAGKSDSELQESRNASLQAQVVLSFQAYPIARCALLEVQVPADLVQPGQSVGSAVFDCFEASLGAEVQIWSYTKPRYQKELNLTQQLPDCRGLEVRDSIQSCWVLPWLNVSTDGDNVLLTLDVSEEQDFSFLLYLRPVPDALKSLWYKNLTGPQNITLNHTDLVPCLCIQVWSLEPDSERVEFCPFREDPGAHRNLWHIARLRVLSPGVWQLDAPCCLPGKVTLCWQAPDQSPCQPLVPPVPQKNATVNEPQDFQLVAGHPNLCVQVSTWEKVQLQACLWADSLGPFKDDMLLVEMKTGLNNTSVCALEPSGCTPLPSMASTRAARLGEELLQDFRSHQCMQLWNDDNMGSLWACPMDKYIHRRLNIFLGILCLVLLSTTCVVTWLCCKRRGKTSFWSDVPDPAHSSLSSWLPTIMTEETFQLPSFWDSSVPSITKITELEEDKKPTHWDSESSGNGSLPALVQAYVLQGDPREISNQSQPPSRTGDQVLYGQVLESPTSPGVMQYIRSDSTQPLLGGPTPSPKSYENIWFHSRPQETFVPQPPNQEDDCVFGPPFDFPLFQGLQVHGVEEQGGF
Procedure: as §1

binding result [1]: no binding
binding result [2]: no binding
binding result [3]: no binding
B1: FLAG-tagged IL-17C (ligand)
chain: HHDPSLRGHPHSHGTPHCYSAEELPLGQAPPHLLARGAKWGQALPVALVSSLEAASHRGRHERPSATTQCPVLRPEEVLEADTHQRSISPWRYRVDTDEDRYPQKLAFAECLCRGCIDARTGRETAALNSVRLLQSLLVLRRRPCSRDGSGLPTPGAFAFHTEFIHVPVGCTCVLPRSV
notes: Used as supernatant of transfected 293T cells; also called IL-71; not shown: FLAG peptide tag at the N-terminus (after the pre-protrypsin leader)
